{"source": "paper PMC12375888", "about": "(Febs Letters, 2025)", "binders": {"B1": {"name": "Mycobacterium tuberculosis SufE-like protein Rv3284 (SufE Mtb) (natural protein)", "chain": "MTAPASLPAPLAEVVSDFAEVQGQDKLRLLLEFANELPALPSHLAESAMEPVPECQSPLFLHVDASDPNRVRLHFSAPAEAPTTRGFASILAAGLDEQPAADILAVPEDFYTELGLAALISPLRLRGMSAMLARIKRRLREAD", "notes": "Tag-free after TEV cleavage; also called SseE; not shown: His6, N-terminal, cleaved; GST, N-terminal, cleaved"}}, "key": {"[1]": {"target": "T1, Mycobacterium tuberculosis thiosulfate sulfurtransferase SseA (Mycobacterium tuberculosis, UniProt P9WHF7 1-297, RED-NHS dye on primary amines (lysine residues), degree of labeling ~0.5, in the MST experiment only)", "T1 sequence": "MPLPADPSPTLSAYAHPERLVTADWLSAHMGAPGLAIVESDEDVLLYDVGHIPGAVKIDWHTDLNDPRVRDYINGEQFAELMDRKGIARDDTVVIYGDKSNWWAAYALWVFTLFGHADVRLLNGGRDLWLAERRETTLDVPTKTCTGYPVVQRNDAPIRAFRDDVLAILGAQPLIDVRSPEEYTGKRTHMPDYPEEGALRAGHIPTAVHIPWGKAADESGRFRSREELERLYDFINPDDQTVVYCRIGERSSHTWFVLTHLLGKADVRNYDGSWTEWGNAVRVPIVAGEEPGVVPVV", "assay": "cell-based or functional assay"}, "[2]": {"target": "T1, Mycobacterium tuberculosis thiosulfate …", "assay": "MST; 10 nM SseA labelled with RED-NHS dye, label-free SufE Mtb titrated from 1.5 nM to 50 uM; 25 °C, 50 mM sodium phosphate pH 7.8, 0.05% Tween-20; Monolith NT.115", "settings": "both partners purified"}, "[3]": {"target": "T1, Mycobacterium tuberculosis thiosulfate …", "assay": "ITC; 10 uM SseA in the cell titrated with 100 uM SufE; PBS pH 8.0 (phosphate 20 mM, NaCl 150 mM, DTT 2 mM), 25 °C; single binding site model", "settings": "both partners purified"}}}
{"binder": "B1", "values": [{"measurement": "thiosulfate:cyanide sulfurtransferase activity of 10 uM SseA with increasing SufE Mtb (10-100 uM)", "setting": "[1]", "value": 4, "unit": "fold"}, {"measurement": "Kd", "setting": "[2]", "value": "3 ± 0.7", "unit": "µM"}, {"measurement": "Kd", "setting": "[3]", "value": "3.3 ± 0.6", "unit": "µM"}, {"measurement": "dH", "setting": "[3]", "value": -11.6, "unit": "kcal/mol"}, {"measurement": "stoichiometry N", "setting": "[3]", "value": 1}]}
